Here are results for two molecules from publication PMC12430004.

Where two headings read alike, the source gives them in different places.

Holding throughout (assay): EMSA
For orientation: In EMSA bound probe runs differently from free probe, usually more slowly.

For data set [1], the target named is T1, hPNPase E475G (Homo sapiens, UniProt Q8TCS8 46-783, E475G).
T1 sequence: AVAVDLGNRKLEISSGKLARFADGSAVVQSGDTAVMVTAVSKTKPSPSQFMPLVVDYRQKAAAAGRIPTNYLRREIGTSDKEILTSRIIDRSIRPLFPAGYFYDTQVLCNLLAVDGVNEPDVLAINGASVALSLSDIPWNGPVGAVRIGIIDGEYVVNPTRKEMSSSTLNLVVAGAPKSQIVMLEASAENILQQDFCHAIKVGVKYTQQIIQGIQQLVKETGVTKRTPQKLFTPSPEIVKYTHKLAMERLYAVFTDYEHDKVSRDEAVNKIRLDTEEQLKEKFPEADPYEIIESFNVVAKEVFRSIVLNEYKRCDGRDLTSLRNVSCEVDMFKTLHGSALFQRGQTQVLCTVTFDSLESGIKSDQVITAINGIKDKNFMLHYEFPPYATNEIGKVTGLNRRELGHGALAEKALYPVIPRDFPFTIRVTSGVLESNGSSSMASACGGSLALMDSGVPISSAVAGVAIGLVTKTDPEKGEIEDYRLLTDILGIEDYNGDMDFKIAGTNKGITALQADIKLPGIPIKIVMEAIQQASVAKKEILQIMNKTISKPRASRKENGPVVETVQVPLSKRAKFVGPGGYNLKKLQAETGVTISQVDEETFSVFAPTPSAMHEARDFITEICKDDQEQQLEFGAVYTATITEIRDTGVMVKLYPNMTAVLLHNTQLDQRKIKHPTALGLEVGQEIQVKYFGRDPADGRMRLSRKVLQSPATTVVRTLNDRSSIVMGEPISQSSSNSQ

Data set [2] has as its target T2, hPNPase Q387R (Homo sapiens, UniProt Q8TCS8 46-783, Q387R).
T2 sequence: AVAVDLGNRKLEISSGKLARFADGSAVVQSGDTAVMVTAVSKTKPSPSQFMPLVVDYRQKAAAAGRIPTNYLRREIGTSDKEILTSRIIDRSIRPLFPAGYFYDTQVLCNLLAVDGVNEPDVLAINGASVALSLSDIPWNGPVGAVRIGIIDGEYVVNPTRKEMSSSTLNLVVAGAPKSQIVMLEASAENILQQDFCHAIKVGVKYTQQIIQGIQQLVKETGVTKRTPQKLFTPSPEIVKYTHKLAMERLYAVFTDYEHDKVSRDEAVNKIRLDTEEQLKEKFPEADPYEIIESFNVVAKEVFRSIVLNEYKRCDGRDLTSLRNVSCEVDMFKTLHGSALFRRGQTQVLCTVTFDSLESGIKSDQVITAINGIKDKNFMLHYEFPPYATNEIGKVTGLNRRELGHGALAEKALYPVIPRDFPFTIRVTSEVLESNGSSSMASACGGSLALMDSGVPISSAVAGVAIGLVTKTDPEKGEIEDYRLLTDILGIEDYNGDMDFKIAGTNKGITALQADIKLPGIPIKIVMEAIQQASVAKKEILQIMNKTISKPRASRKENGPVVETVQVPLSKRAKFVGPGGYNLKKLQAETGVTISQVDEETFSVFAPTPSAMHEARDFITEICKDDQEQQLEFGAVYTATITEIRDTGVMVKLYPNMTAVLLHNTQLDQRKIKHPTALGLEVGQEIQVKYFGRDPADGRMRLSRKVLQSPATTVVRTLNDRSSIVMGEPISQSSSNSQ

The target of data set [3] is T1, hPNPase E475G. The source holds these as a separate data set.
Data set [4] concerns the target T3, hPNPase P140L (Homo sapiens, UniProt Q8TCS8 46-783, P140L).
T3 sequence: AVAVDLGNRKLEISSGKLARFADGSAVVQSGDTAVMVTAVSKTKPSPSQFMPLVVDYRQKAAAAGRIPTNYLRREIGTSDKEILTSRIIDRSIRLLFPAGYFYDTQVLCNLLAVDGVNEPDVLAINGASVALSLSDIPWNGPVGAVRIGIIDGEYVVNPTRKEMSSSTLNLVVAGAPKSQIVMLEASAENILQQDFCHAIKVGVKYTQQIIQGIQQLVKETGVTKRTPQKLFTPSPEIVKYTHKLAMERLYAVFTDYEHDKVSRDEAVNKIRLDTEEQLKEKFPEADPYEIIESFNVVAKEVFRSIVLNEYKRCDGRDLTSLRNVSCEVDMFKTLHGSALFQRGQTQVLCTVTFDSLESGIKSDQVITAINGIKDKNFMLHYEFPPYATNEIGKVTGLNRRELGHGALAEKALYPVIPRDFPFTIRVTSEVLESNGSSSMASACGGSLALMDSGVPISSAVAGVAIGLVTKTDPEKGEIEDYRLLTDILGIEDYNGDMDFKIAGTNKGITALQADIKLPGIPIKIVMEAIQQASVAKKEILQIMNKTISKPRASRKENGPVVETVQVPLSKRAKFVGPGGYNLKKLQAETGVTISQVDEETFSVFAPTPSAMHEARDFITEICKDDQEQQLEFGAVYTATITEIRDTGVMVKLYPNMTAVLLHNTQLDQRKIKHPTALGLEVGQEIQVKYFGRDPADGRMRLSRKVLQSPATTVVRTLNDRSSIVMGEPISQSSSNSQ

Data set [5] concerns the target T2, hPNPase Q387R. This is another data set of the same source.

With ACUGGACAAAUACUCCGACG (ssRNA) [RNA20], the binding result in data set [1] and in data set [2] was “no binding” in each case.

Take ACTGGACAAATACTCCGACG (ssDNA) [DNA20]: the binding result in data set [3], in data set [4] and in data set [5] was “no binding” each time.
